Measurements as given in patent publication US20150344570A1 (published 2015).

Legend:
[1] = biological target: T1, FcγRIIb extracellular domain with C-terminal His tag (human, UniProt P31994 43-217); assay: SPR (Biacore), relative binding
T1 construct: extracellular domain; also called FcgRIIb; 2b
T1 sequence (looked up): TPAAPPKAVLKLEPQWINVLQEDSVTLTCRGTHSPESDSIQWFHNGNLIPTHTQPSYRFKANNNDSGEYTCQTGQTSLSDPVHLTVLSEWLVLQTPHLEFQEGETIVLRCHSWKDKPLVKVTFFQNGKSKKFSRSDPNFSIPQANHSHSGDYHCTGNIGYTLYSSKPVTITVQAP

[2] = biological target: T2, FcγRIIa R (FcγRIIa, allotype with Arg at position 131), extracellular domain with C-terminal His tag (human, UniProt P12318 34-217); assay: SPR (Biacore), antibody captured on antigen peptide chip, FcγR as analyte; relative binding
T2 construct: extracellular domain; also called FcγRIIa R type; 2aR
T2 sequence (looked up): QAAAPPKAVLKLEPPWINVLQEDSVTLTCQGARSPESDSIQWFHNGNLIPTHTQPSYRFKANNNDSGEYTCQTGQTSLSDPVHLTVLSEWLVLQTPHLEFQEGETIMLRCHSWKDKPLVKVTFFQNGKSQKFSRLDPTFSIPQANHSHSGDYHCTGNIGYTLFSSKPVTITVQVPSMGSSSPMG
Procedure: Analysis of interaction between objective antibody and the FcγR was carried out using Biacore T100 (GE Healthcare). HBS-EP+ (GE Healthcare) was used as the running buffer, and the measurement temperature was set to 25° C. Chips produced by immobilizing the antigen peptide by the amine coupling method to a Series S Sencor Chip CM5 (GE Healthcare), or alternatively, chips produced by allowing preliminarily biotinylated antigen peptides to interact with and immobilize onto a Series S Sensor Chip SA (certified) (GE Healthcare) were used. Antibodies of interest were captured onto an antigen peptide-immobilized chip, and allowed to interact to each FcγR diluted with running buffer. To regenerate and repeatedly use the chip, the antibodies captured on the chip were washed off by reacting 10 mM glycine-HCl, pH 1.5.

| Binder | He/Con_2b [1] | Ho/Con_2aR [2] |
| --- | --- | --- |
| GpH7-A5/GpH7-B3 variant T335_16H/GpL16-k0 (antibody, human IgG1, kappa, also called He Ab T335_16H) heavy 1: not shown heavy 2: not shown light: DIVMTQSPLSLPVTPGEPASISCQASESLVHSNRNTYLHWYLQKPGQSPQLLIYKVSNRFSGVPDRFSGSGSGTDFTLKISRVEAEDVGVYYCSQNTHVPPTFGQGTKVEIERTVAAPSVFIFPPSDEQLKSGTASVVCLLNNFYPREAKVQWKVDNALQSGNSQESVTEQDSKDSTYSLSSTLTLSKADYEKHKVYACEVTHQGLSSPVTKSFNRGEC | 102 % of HeCon Ab GpH7-A5/GpH7-B3/GpL16-k0 | – |
| GpH7-A5/GpH7-B3 variant T335_20W/GpL16-k0 (antibody, human IgG1, kappa, also called He Ab T335_20W) heavy 1: not shown heavy 2: not shown light: DIVMTQSPLSLPVTPGEPASISCQASESLVHSNRNTYLHWYLQKPGQSPQLLIYKVSNRFSGVPDRFSGSGSGTDFTLKISRVEAEDVGVYYCSQNTHVPPTFGQGTKVEIERTVAAPSVFIFPPSDEQLKSGTASVVCLLNNFYPREAKVQWKVDNALQSGNSQESVTEQDSKDSTYSLSSTLTLSKADYEKHKVYACEVTHQGLSSPVTKSFNRGEC | 104 % of HeCon Ab GpH7-A5/GpH7-B3/GpL16-k0 | – |
| GpH7-A5/GpH7-B3 variant T335_10E/GpL16-k0 (antibody, human IgG1, kappa, also called He Ab T335_10E) heavy 1: not shown heavy 2: not shown light: DIVMTQSPLSLPVTPGEPASISCQASESLVHSNRNTYLHWYLQKPGQSPQLLIYKVSNRFSGVPDRFSGSGSGTDFTLKISRVEAEDVGVYYCSQNTHVPPTFGQGTKVEIERTVAAPSVFIFPPSDEQLKSGTASVVCLLNNFYPREAKVQWKVDNALQSGNSQESVTEQDSKDSTYSLSSTLTLSKADYEKHKVYACEVTHQGLSSPVTKSFNRGEC | 108 % of HeCon Ab GpH7-A5/GpH7-B3/GpL16-k0 | – |
| GpH7-A5/GpH7-B3 variant Y296_20W/GpL16-k0 (antibody, human IgG1, kappa, also called He Ab Y296_20W) heavy 1: not shown heavy 2: not shown light: DIVMTQSPLSLPVTPGEPASISCQASESLVHSNRNTYLHWYLQKPGQSPQLLIYKVSNRFSGVPDRFSGSGSGTDFTLKISRVEAEDVGVYYCSQNTHVPPTFGQGTKVEIERTVAAPSVFIFPPSDEQLKSGTASVVCLLNNFYPREAKVQWKVDNALQSGNSQESVTEQDSKDSTYSLSSTLTLSKADYEKHKVYACEVTHQGLSSPVTKSFNRGEC | 103 % of HeCon Ab GpH7-A5/GpH7-B3/GpL16-k0 | – |
| GpH7-A5/GpH7-B3 variant S337_16H/GpL16-k0 (antibody, human IgG1, kappa, also called He Ab S337_16H) heavy 1: not shown heavy 2: not shown light: DIVMTQSPLSLPVTPGEPASISCQASESLVHSNRNTYLHWYLQKPGQSPQLLIYKVSNRFSGVPDRFSGSGSGTDFTLKISRVEAEDVGVYYCSQNTHVPPTFGQGTKVEIERTVAAPSVFIFPPSDEQLKSGTASVVCLLNNFYPREAKVQWKVDNALQSGNSQESVTEQDSKDSTYSLSSTLTLSKADYEKHKVYACEVTHQGLSSPVTKSFNRGEC | 105 % of HeCon Ab GpH7-A5/GpH7-B3/GpL16-k0 | – |
| GpH7-B3 variant P331_08L/GpL16-k0 (antibody, human IgG1, kappa, also called Ho Ab) heavy: not shown light: DIVMTQSPLSLPVTPGEPASISCQASESLVHSNRNTYLHWYLQKPGQSPQLLIYKVSNRFSGVPDRFSGSGSGTDFTLKISRVEAEDVGVYYCSQNTHVPPTFGQGTKVEIERTVAAPSVFIFPPSDEQLKSGTASVVCLLNNFYPREAKVQWKVDNALQSGNSQESVTEQDSKDSTYSLSSTLTLSKADYEKHKVYACEVTHQGLSSPVTKSFNRGEC | – | 74.4 % of GpH7-B3/GpL16-k0 (=100) |
| GpH7-A5/GpH7-B3 variant T335_18N/GpL16-k0 (antibody, human IgG1, kappa, also called He Ab T335_18N) heavy 1: not shown heavy 2: not shown light: DIVMTQSPLSLPVTPGEPASISCQASESLVHSNRNTYLHWYLQKPGQSPQLLIYKVSNRFSGVPDRFSGSGSGTDFTLKISRVEAEDVGVYYCSQNTHVPPTFGQGTKVEIERTVAAPSVFIFPPSDEQLKSGTASVVCLLNNFYPREAKVQWKVDNALQSGNSQESVTEQDSKDSTYSLSSTLTLSKADYEKHKVYACEVTHQGLSSPVTKSFNRGEC | 102 % of HeCon Ab GpH7-A5/GpH7-B3/GpL16-k0 | – |
| GpH7-B3 variant P331_10E/GpL16-k0 (antibody, human IgG1, kappa, also called Ho Ab) heavy: not shown light: DIVMTQSPLSLPVTPGEPASISCQASESLVHSNRNTYLHWYLQKPGQSPQLLIYKVSNRFSGVPDRFSGSGSGTDFTLKISRVEAEDVGVYYCSQNTHVPPTFGQGTKVEIERTVAAPSVFIFPPSDEQLKSGTASVVCLLNNFYPREAKVQWKVDNALQSGNSQESVTEQDSKDSTYSLSSTLTLSKADYEKHKVYACEVTHQGLSSPVTKSFNRGEC | – | 94.6 % of GpH7-B3/GpL16-k0 (=100) |
| GpH7-A5/GpH7-B3 variant T335_19Q/GpL16-k0 (antibody, human IgG1, kappa, also called He Ab T335_19Q) heavy 1: not shown heavy 2: not shown light: DIVMTQSPLSLPVTPGEPASISCQASESLVHSNRNTYLHWYLQKPGQSPQLLIYKVSNRFSGVPDRFSGSGSGTDFTLKISRVEAEDVGVYYCSQNTHVPPTFGQGTKVEIERTVAAPSVFIFPPSDEQLKSGTASVVCLLNNFYPREAKVQWKVDNALQSGNSQESVTEQDSKDSTYSLSSTLTLSKADYEKHKVYACEVTHQGLSSPVTKSFNRGEC | 100 % of HeCon Ab GpH7-A5/GpH7-B3/GpL16-k0 | – |
| GpH7-A5/GpH7-B3 variant T335_13S/GpL16-k0 (antibody, human IgG1, kappa, also called He Ab T335_13S) heavy 1: not shown heavy 2: not shown light: DIVMTQSPLSLPVTPGEPASISCQASESLVHSNRNTYLHWYLQKPGQSPQLLIYKVSNRFSGVPDRFSGSGSGTDFTLKISRVEAEDVGVYYCSQNTHVPPTFGQGTKVEIERTVAAPSVFIFPPSDEQLKSGTASVVCLLNNFYPREAKVQWKVDNALQSGNSQESVTEQDSKDSTYSLSSTLTLSKADYEKHKVYACEVTHQGLSSPVTKSFNRGEC | 102 % of HeCon Ab GpH7-A5/GpH7-B3/GpL16-k0 | – |
